The values below come from patent publication US20200262920A1 (AMPHIVENA THERAPEUTICS, published 2020).

The target in assay [1] is T1, human CD3 (human, UniProt P07766 23-207; P09693 23-182; P04234 22-171; P20963 22-164).
T1 construct: whole, on cells; the description names the epsilon chain only 'in certain instances'; also called hu CD3; CD3 on T cells
In words: flow cytometry, human T-cells. (In general: A flow cytometer gives signals particle by particle.)

The target of assay [2] is T2, human CD33 (human, UniProt P20138 18-364). Description: cell-based or functional assay.
Assay [3] deals with T1, human CD3. Description: cell-based or functional assay.
Assay [4] has as its target T2, human CD33. Description: flow cytometry titration, U-937 cells. Here is the method: (§1) Cells were incubated with 100 μL of serial dilutions of CD33/CD3 2×2 T-cell engagers. After washing three times with FACS buffer the cells were incubated with 0.1 mL of 10 μg/mL mouse monoclonal anti-His antibody in the same buffer for 45 min on ice. After a second washing cycle, the cells were incubated with 0.1 mL of 15 μg/mL FITC-conjugated goat anti-mouse IgG antibodies under the same conditions as before. As a control, cells were incubated with the anti-His IgG followed by the FITC-conjugated goat anti-mouse IgG antibodies without anti-CD33 2×2 T-cell engagers. The cells were then washed again and resuspended in 0.2 mL of FACS buffer containing 2 μg/mL propidium iodide (PI) in order to exclude dead cells. The fluorescence of 1×10⁴ living cells was measured using a Beckman-Coulter FC500 MPL flow cytometer using the MXP software (Beckman-Coulter, Krefeld, Germany) or a Millipore Guava EasyCyte flow cytometer using the Incyte software (Merck Millipore, Schwalbach, Germany). Mean fluorescence intensities of the cell samples were calculated using CXP software (Beckman-Coulter, Krefeld, Germany) or Incyte software (Merck Millipore, Schwalbach, Germany). After subtracting the fluorescence intensity values of the cells stained with the secondary and tertiary reagents alone the values were used for calculation of the KD values with the equation for one-site binding (hyperbola) of the GraphPad Prism (version 6.00 for Windows, GraphPad Software, La Jolla Calif. USA). […]

Assay [5] addresses T2, human CD33. In words: flow cytometry titration, KG-1 cells. The protocol: as §1
The target in assay [6] is T1, human CD3. Description: flow cytometry titration, T cells (human CD3+).
Assay [7] has as its target T2, human CD33. Description: flow cytometry titration, HL-60 cells. Here is the method: as §1
The target in assay [8] is T2, human CD33. In words: flow cytometry, HL-60 cells.

T2 sequence (P20138 18-364): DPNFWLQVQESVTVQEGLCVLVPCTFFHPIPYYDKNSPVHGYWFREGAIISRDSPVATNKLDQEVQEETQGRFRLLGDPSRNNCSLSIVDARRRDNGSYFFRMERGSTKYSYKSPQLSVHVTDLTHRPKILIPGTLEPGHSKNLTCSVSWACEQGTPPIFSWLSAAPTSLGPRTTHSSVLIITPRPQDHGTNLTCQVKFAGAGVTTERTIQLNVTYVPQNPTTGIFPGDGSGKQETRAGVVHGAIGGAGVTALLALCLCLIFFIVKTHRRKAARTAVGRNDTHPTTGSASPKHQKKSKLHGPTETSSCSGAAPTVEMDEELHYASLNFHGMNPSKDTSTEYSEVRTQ
T1 sequence (P07766 23-207, chain 1 of 4): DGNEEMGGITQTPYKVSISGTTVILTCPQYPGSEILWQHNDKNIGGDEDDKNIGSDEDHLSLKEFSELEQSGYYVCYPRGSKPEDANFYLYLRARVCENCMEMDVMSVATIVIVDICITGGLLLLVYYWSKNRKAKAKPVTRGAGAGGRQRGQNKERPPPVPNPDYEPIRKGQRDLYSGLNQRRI
T1 sequence (P09693 23-182, chain 2 of 4): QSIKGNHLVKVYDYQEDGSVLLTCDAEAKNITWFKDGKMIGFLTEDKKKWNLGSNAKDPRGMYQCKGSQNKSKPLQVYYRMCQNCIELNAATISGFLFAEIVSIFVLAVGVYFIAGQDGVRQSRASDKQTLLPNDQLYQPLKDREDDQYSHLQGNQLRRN
T1 sequence (P04234 22-171, chain 3 of 4): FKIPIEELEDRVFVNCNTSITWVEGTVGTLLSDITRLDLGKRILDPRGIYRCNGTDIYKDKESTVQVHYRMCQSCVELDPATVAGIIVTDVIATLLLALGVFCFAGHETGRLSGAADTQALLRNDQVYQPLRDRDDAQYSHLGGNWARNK
T1 sequence (P20963 22-164, chain 4 of 4): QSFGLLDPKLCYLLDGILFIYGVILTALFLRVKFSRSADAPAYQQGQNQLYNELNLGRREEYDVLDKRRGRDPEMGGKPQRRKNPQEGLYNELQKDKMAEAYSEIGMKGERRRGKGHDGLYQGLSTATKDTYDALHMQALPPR

B1: CD33/CD3 2×2 T-cell engager 05 (bispecific antibody)
chain: DIQMTQSPSSLSASVGDRVTITCRSSTGAVTTSNYANWVQQKPGKAPKGLIGGTNKRAPGVPARFSGSGSGTDFTLTISSLQPEDFATYYCALWYSNLWVFGQGTKVEIKGGSGGSQVQLVQSGAEVKKPGASVKVSCKASGYTFTSYDINWVRQAPGQGLEWMGWMNPNSGNTGFAQKFQGRVTMTRDTSTSTVYMELSSLRSEDTAVYYCARDRANTDYSFGMDVWGQGTLVTVSSGGSGGQSVLTQPPSASGTPGQRVTISCSGSRSNIGSNTVNWYQQLPGTAPKLLIYGNNQRPSGVPDRFSGSKSGTSASLAISGLQSEDEADYYCATWDDSLIGWVFGGGTKLTVLGGSGGSEVQLVESGGGLVQPGGSLRLSCAASGFTFSTYAMNWVRQAPGKGLEWVGRIRSKYNNYATYYADSVKDRFTISRDDSKNSLYLQMNSLKTEDTAVYYCARHGNFGNSYVSWFAYWGQGTLVTVSSAAAGSHHHHHH
notes: Non-covalent homodimer; also called 2×2 T-cell engager 5
The Kd is the concentration at which binding is half-saturated. Read a low Kd as tighter binding. Regarding B1, the Kd with human CD3 [1] was 69.5 nM; with human CD33 [4] it was 6.2 nM; in the assay with human CD33 [5], 1.2 nM; with human CD3 [6], 69.5 nM; with human CD33 [7], 1 nM; in the assay with human CD33 [8], 1 nM. Further, the “EC50 on HL-60 (cytotoxicity)” value in the assay with human CD33 [2] came to 0.0027 nM. Further, the “CD25 Induction EC50” value in the assay with human CD3 [3] was 0.116 nM. The “CD69 Induction EC50” value in the assay with human CD3 [3] came out at 0.074 nM. Also, the “T cell Proliferation in PBMC EC50” value with human CD3 [3] worked out at 0.074 nM.

B2: CD33/CD3 2×2 T-cell engager 04 (bispecific antibody)
chain: DIQMTQSPSSLSASVGDRVTITCRSSTGAVTTSNYANWVQQKPGKAPKGLIGGTNKRAPGVPARFSGSGSGTDFTLTISSLQPEDFATYYCALWYSNLWVFGQGTKVEIKGGSGGSQVQLVQSGAEVKKPGASVKVSCKASGYTFTSYDINWVRQAPGQGLEWMGWMNPNSGNTGFAQKFQGRVTMTRDTSTSTVYMELSSLRSEDTAVYYCARDRANTDYSLGMDVWGQGTLVTVSSGGSGQSVLTQPPSASGTPGQRVTISCSGSRSNIGSNTVNWYQQLPGTAPKLLIYGNNQRPSGVPDRFSGSKSGTSASLAISGLQSEDEADYYCATWDDSLIGWVFGGGTKLTVLGGSGGSEVQLVESGGGLVQPGGSLRLSCAASGFTFSTYAMNWVRQAPGKGLEWVGRIRSKYNNYATYYADSVKDRFTISRDDSKNSLYLQMNSLKTEDTAVYYCARHGNFGNSYVSWFAYWGQGTLVTVSSAAAGSHHHHHH
notes: Non-covalent homodimer; also called 2×2 T-cell engager 4
As to B2, the Kd with human CD3 [1] turned out to be 79.3 nM; with human CD33 [4] it was 1.7 nM; in the assay with human CD33 [5], 0.5 nM; with human CD3 [6] it was 79.3 nM; with human CD33 [7], 0.5 nM; with human CD33 [8] it was 0.5 nM. In the assay with human CD33 [2], the “EC50 on HL-60 (cytotoxicity)” value stood at 0.0018 nM. Moreover, the “CD25 Induction EC50” value with human CD3 [3] stood at 0.094 nM. Further, the “CD69 Induction EC50” value with human CD3 [3] was 0.062 nM. Also, the “T cell Proliferation in PBMC EC50” value in the assay with human CD3 [3] came to 0.044 nM.

B3: CD33/CD3 2×2 T-cell engager 09 (bispecific antibody)
chain: DIQMTQSPSSLSASVGDRVTITCRSSTGAVTTSNYANWVQQKPGKAPKGLIGGTNKRAPGVPSRFSGSLIGDKATLTISSLQPEDFATYYCALWYSNLWVFGQGTKVEIKGGSGGSQVQLVQSGAEVKKPGASVKVSCKASGYTFTSYDINWVRQAPGQGLEWMGWMNPNSGNTGFAQKFQGRVTMTRDTSTSTVYMELSSLRSEDTAVYYCARDRANTDFSYGMDVWGQGTLVTVSSGGSGQSVLTQPPSASGTPGQRVTISCSGSRSNIGSNTVNWYQQLPGTAPKLLIYGNNQRPSGVPDRFSGSKSGTSASLAISGLQSEDEADYYCATWDDSLIGWVFGGGTKLTVLGGSGGSEVQLVESGGGLVQPGGSLRLSCAASGFTFSTYAMNWVRQAPGKGLEWVGRIRSKYNNYATYYADSVKDRFTISRDDSKNSLYLQMNSLKTEDTAVYYCARHGNFGNSYVSWFAYWGQGTLVTVSSAAAGSHHHHHH
notes: Non-covalent homodimer; also called 2×2 T-cell engager 9
Consider B3, for which the Kd in the assay with human CD3 [1] stood at 2.4 nM; with human CD33 [4] it was 2.2 nM; with human CD33 [5], 0.3 nM; in the assay with human CD3 [6], 2.4 nM; in the assay with human CD33 [7], 0.5 nM; in the assay with human CD33 [8], 0.5 nM. In addition, the “EC50 on HL-60 (cytotoxicity)” value with human CD33 [2] is 0.0068 nM. The “CD25 Induction EC50” value with human CD3 [3] turned out to be 0.011 nM. Moreover, the “CD69 Induction EC50” value with human CD3 [3] came to 0.007 nM. The “T cell Proliferation in PBMC EC50” value in the assay with human CD3 [3] is 0.009 nM.

B4: CD33/CD3 2×2 T-cell engager 13 (bispecific antibody)
chain: DIQMTQSPSSLSASVGDRVTITCRSSTGAVTTSNYANWVQQKPGKAPKGLIGGTNKRAPGVPSRFSGSLIGTDFTLTISSLQPEDFATYYCALWYSNLWVFGQGTKVEIKGGSGGSQVQLVQSGAEVKKPGASVKVSCKASGYTFTSYDINWVRQAPGQGLEWMGWMNPNSGNTGFAQKFQGRVTMTRDTSTSTVYMELSSLRSEDTAVYYCARDRAVTDYYYGMDVWGQGTLVTVSSGGSGQSVLTQPPSASGTPGQRVTISCSGSRSNIGSNTVNWYQQLPGTAPKLLIYGNNQRPSGVPDRFSGSKSGTSASLAISGLQSEDEADYYCATWDDSLIGWVFGGGTKLTVLGGSGGSEVQLVESGGGLVQPGGSLRLSCAASGFTFSTYAMNWVRQAPGKGLEWVGRIRSKYNNYATYYADSVKDRFTISRDDSKNSLYLQMNSLKTEDTAVYYCARHGNFGNSYVSWFAYWGQGTLVTVSSAAAGSHHHHHH
notes: Non-covalent homodimer
Consider B4, for which the Kd with human CD3 [1] was found to be 55.7 nM; with human CD33 [4], 0.5 nM; with human CD33 [5] it was 0.3 nM; in the assay with human CD3 [6], 55.7 nM; with human CD33 [7] it was 0.2 nM; in the assay with human CD33 [8], 0.2 nM. Further, the “EC50 on HL-60 (cytotoxicity)” value in the assay with human CD33 [2] was determined as 0.0011 nM. In addition, the “CD25 Induction EC50” value with human CD3 [3] was 0.03 nM. In the assay with human CD3 [3], the “CD69 Induction EC50” value came out at 0.022 nM. In addition, the “T cell Proliferation in PBMC EC50” value with human CD3 [3] stood at 0.023 nM.

B5: CD33/CD3 2×2 T-cell engager 15 (bispecific antibody)
chain: DIQMTQSPSSLSASVGDRVTITCRSSTGAVTTSNYANWVQQKPGKAPKALIGGTNKRAPGVPSRFSGSLIGDKATLTISSLQPEDFATYYCALWYSNLWVFGQGTKVEIKGGSGGSQVQLVQSGAEVKKPGASVKVSCKASGYTFTSYDINWVRQAPGQGLEWMGWMNPNSGNTGFAQKFQGRVTMTRDTSTSTVYMELSSLRSEDTAVYYCARDRANTDYSFGMDVWGQGTLVTVSSGGSGQSVLTQPPSASGTPGQRVTISCSGSRSNIGSNTVNWYQQLPGTAPKLLIYGNNQRPSGVPDRFSGSKSGTSASLAISGLQSEDEADYYCATWDDSLIGWVFGGGTKLTVLGGSGGSEVQLVESGGGLVQPGGSLRLSCAASGFTFSTYAMNWVRQAPGKGLEWVGRIRSKYNNYATYYADSVKDRFTISRDDSKNSLYLQMNSLKTEDTAVYYCARHGNFGNSYVSYFAYWGQGTLVTVSSAAAGSHHHHHH
notes: Non-covalent homodimer
With B5, the Kd with human CD3 [1] was determined as 1.3 nM; in the assay with human CD33 [4] it was 0.9 nM; in the assay with human CD33 [5] it was 0.3 nM; with human CD3 [6], 1.3 nM; with human CD33 [7] it was 0.4 nM; with human CD33 [8], 0.4 nM. Also, in the assay with human CD33 [2], the “EC50 on HL-60 (cytotoxicity)” value was 0.0018 nM. Further, in the assay with human CD3 [3], the “CD25 Induction EC50” value was 0.006 nM. In the assay with human CD3 [3], the “CD69 Induction EC50” value is 0.007 nM. Also, the “T cell Proliferation in PBMC EC50” value in the assay with human CD3 [3] stood at 0.007 nM.

B6: CD33/CD3 2×2 T-cell engager 11 (bispecific antibody)
chain: DIQMTQSPSSLSASVGDRVTITCRSSTGAVTTSNYANWVQQKPGKAPKGLIGGTNKRAPGVPSRFSGSLIGDKATLTISSLQPEDFATYYCALWYSNLWVFGQGTKVEIKGGSGGSQVQLVQSGAEVKKPGASVKVSCKASGYTFTSYDINWVRQAPGQGLEWMGWMNPNSGNTGFAQKFQGRVTMTRDTSTSTVYMELSSLRSEDTAVYYCARDRANTDYSLGMDVWGQGTLVTVSSGGSGQSVLTQPPSASGTPGQRVTISCSGSRSNIGSNTVNWYQQLPGTAPKLLIYGNNQRPSGVPDRFSGSKSGTSASLAISGLQSEDEADYYCATWDDSLIGWVFGGGTKLTVLGGSGGSEVQLVESGGGLVQPGGSLRLSCAASGFTFSTYAMNWVRQAPGKGLEWVGRIRSKYNNYATYYADSVKDRFTISRDDSKNSLYLQMNSLKTEDTAVYYCARHGNFGNSYVSWFAYWGQGTLVTVSSAAAGSHHHHHH
notes: Non-covalent homodimer
Consider B6, for which the Kd in the assay with human CD3 [1] was found to be 2.6 nM; with human CD33 [4], 0.6 nM; in the assay with human CD33 [5], 0.5 nM; with human CD3 [6], 2.6 nM; in the assay with human CD33 [7], 0.3 nM; with human CD33 [8], 0.3 nM. Besides, in the assay with human CD33 [2], the “EC50 on HL-60 (cytotoxicity)” value was 0.0059 nM. Moreover, the “CD25 Induction EC50” value in the assay with human CD3 [3] worked out at 0.011 nM. In addition, the “CD69 Induction EC50” value in the assay with human CD3 [3] was 0.005 nM. Besides, the “T cell Proliferation in PBMC EC50” value with human CD3 [3] is 0.006 nM.
